Measurements from patent US20180306788.

Columns and labels:
[1] = molecular target: acetyl-CoA carboxylase 2 (ACC2), wild type
[2] = molecular target: T1, control ACC2 proline-containing peptide (P966)
T1 chain: ARLELDDPSKVHPAE

[3] = molecular target: T2, synthetic ACC2 peptide containing P2131
T2 chain: AGQVWFPDSAYKTAQ

[4] = molecular target: T3, synthetic ACC2 peptide containing P450
T3 chain: ERIGFPLMIKASEGGGGK

| Protein | in vitro ACC activity assay ([14C]malonyl-CoA from [14C]bicarbonate, 293T lysates) (ACC2 P450A point mutant) | in vitro ACC activity assay ([14C]malonyl-CoA from [14C]bicarbonate, 293T lysates) [1] | reconstituted in vitro radioactivity-based hydroxylation assay ([14C]CO2 release) [2] | reconstituted in vitro radioactivity-based hydroxylation assay ([14C]CO2 release) [3] | reconstituted in vitro radioactivity-based hydroxylation assay ([14C]CO2 release) [4] |
| --- | --- | --- | --- | --- | --- |
| HA-PHD3 (hemagglutinin-tagged prolyl hydroxylase 3, transiently overexpressed in 293T cells) (protein) MPLGHIMRLDLEKIALEYIVPCLHEVGFCYLDNFLGEVVGDCVLERVKQLHCTGALRDGQLAGPRAGVSKRHLRGDQITWIGGNEEGCEAISFLLSLIDRLVLYCGSRLGKYYVKERSKAMVACYPGNGTGYVRHVDNPNGDGRCITCIYYLNKNWDAKLHGGILRIFPEGKSFIADVEPIFDRLLFFWSDRRNPHEVQPSYATRYAMTVWYFDAEERAEAKKKFRNLTRKTESALTED | had no effect on the P450A variant | PHD3 overexpression amplified wild-type ACC2 activity | – | – | – |
| recombinant PHD3 (in vitro hydroxylation assay) (protein) MPLGHIMRLDLEKIALEYIVPCLHEVGFCYLDNFLGEVVGDCVLERVKQLHCTGALRDGQLAGPRAGVSKRHLRGDQITWIGGNEEGCEAISFLLSLIDRLVLYCGSRLGKYYVKERSKAMVACYPGNGTGYVRHVDNPNGDGRCITCIYYLNKNWDAKLHGGILRIFPEGKSFIADVEPIFDRLLFFWSDRRNPHEVQPSYATRYAMTVWYFDAEERAEAKKKFRNLTRKTESALTED | – | – | but not a peptide containing P2131 or a control ACC2 proline-containing peptide (P966) | but not a peptide containing P2131 | recombinant PHD3 was shown to hydroxylate a synthetic ACC2 peptide containing P450 |
